Reference: article PMC9351184, “Survey of the binding preferences of RNA-binding proteins to RNA editing events”

Columns and labels:
[1] = target: T1, ILF3 dsRBD (Homo sapiens, UniProt Q12906 398-590); test: EMSA; 1 uM labelled RNA, 3 uM protein, 10 ul, on ice 45 min; 6% PAGE in 0.5x TBE (gel pre-run at 4 C); binding buffer, salt and pH not stated (proteins dialyzed in 25 mM Tris-HCl pH 8.0, 150 mM NaCl; final elution from cation exchange/heparin up to 1 M NaCl, then SEC); conditions: protein: recombinant; tags: N-terminal GST (pGood6p), removed with TEV; label: 5' DY781
T1 sequence: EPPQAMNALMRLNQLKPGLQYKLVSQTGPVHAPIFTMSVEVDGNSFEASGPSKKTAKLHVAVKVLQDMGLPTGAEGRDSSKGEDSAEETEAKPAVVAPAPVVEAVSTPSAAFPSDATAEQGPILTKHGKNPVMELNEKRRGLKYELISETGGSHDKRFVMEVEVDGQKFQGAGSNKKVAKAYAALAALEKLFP

[2] = target: hnRNPC dsRBD (Homo sapiens, UniProt P07910 16-57); test: as above; conditions: protein: recombinant; tags: 10xHis (pSUMOH10), removed with TEV; label: 5' DY781
Sequence of hnRNPC dsRBD (P07910 16-57): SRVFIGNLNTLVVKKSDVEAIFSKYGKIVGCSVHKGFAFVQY

AGUGGCUUAUGCCUGUGAUCCCAACAC (ssRNA, A-to-I editing site represented by G as printed (A/G); inosine not stated) [edited RNA]
binding result [1]: binds
binding result [2]: binds
